From patent US20220315554A1, “COMPOUNDS COMPRISING A […] LIGAND AND USE THEREOF” (priority 2019, published 2022)

What was measured:
[1] = molecular target: T1, Recombinant human FAP (R&D systems, #3715-SE) (human)
T1 sequence: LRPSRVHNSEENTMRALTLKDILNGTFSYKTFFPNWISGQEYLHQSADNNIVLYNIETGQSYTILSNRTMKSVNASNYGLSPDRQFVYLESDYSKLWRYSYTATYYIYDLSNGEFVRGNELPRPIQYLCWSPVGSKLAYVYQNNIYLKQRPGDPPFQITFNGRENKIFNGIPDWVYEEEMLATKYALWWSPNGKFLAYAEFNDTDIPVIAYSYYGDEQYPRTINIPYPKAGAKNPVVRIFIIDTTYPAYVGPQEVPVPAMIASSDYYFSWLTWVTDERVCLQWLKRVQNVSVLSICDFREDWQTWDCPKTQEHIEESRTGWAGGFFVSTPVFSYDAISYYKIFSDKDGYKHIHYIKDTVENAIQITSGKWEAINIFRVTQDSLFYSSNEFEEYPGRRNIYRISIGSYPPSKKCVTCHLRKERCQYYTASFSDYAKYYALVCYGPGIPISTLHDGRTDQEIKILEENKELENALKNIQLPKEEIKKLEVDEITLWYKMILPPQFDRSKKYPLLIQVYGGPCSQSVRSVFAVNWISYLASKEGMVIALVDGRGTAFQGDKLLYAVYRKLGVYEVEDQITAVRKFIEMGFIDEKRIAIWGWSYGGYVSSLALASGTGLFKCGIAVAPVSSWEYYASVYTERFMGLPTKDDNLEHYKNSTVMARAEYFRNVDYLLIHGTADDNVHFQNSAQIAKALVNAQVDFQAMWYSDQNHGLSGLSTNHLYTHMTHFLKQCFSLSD

[2] = molecular target: human fibroblast activation protein (FAP) on FAP-expressing human WI-38 fibroblasts (human); assay: competition FACS, WI-38 cells, vs Cy5-labeled compound; A: pIC50 >8.0

Substance	pIC50 Category (Activity) [1]	pIC50 Category (FACS) [2]
Ac-Met-[Cys(3MeBn)-Pro-Pro-Thr-Glu-Phe-Cys]-Asp-His-Phe-Arg-asp-NH2 (peptide)	> 8 pIC50	> 8 pIC50
Ac-Met-[Cys(3MeBn)-Pro-Pro-Thr-Glu-Phe-Cys]-Asp-His-phe-Arg-Asp-NH2 (peptide)	> 8 pIC50	> 8 pIC50
Hex-[Cys(3MeBn)-Pro-Pro-Thr-Glu-Phe-Cys]-Asp-Mamb-Arg-NH2 (peptide)	> 8 pIC50	> 8 pIC50
Hex-[Cys(tMeBn(DOTA-AET))-Pro-Hyp-Thr-Gln-Phe-Cys]-OH (peptide)	> 8 pIC50	> 8 pIC50
Ac-Met-[Cys(3MeBn)-Pro-Pro-Thr-Glu-Phe-Cys]-Asp-Ala-Phe-Arg-Asp-NH2 (peptide)		> 8 pIC50
Hex-[Cys(3MeBn)-Pro-Pro-Ala-Glu-Phe-Cys]-NH2 (peptide)	< 6 pIC50	
Hex-[Cys(3MeBn)-Pro-Pro-Thr-Glu-Phe-Cys]-Bal-OH (peptide)		> 8 pIC50
Ac-Met-[Cys(3MeBn)-Pro-Pro-Thr-Glu-Phe-Cys]-Asp-His-Phe-Arg-Ala-NH2 (peptide)	> 8 pIC50	> 8 pIC50
Hex-[Cys(3MeBn)-Pro-Pro-Thr-Ala-Phe-Cys]-NH2 (peptide)	< 6 pIC50	
Hex-[Cys(tMeBn(DOTA-AET))-Pro-Pro-Thr-Gln-Phe-AET] (peptide)	> 8 pIC50	> 8 pIC50
Hex-[Cys(tMeBn(DOTA-AET))-Nmg-Pro-Thr-Gln-Phe-Cys]-OH (peptide)	> 8 pIC50	> 8 pIC50
Hex-[Cys(tMeBn(DOTA-AET))-Pro-Pro-Thr-Gln-Phe-Cys]-Gly-OH (peptide)	> 8 pIC50	> 8 pIC50
Hex-[Cys(3MeBn)-Pro-Pro-Thr-Glu-Phe-Cys]-Asp-Ttds-Lys(DOTA)-NH2 (peptide)	> 8 pIC50	> 8 pIC50
Hex-[Cys(3MeBn)-Pro-Pro-Thr-Glu-Phe-Cys]-Asp-Pamb-Arg-NH2 (peptide)	> 8 pIC50	> 8 pIC50
Ac-Met-[Cys(3MeBn)-Pro-Pro-Thr-Glu-Phe-Cys]-Asp-His-Ala-Arg-Asp-NH2 (peptide)	> 8 pIC50	> 8 pIC50
DOTA-Ttds-Nle-[Cys(3MeBn)-Pro-Pro-Thr-Gln-Phe-Cys]-Bal-OH (peptide)	> 8 pIC50	> 8 pIC50
Hex-[Cys(3MeBn)-Pro-Pro-Thr-Glu-Phe-Cys]-Asp-Gab-Arg-NH2 (peptide)	> 8 pIC50	> 8 pIC50
Hex-[Cys(tMeBn(DOTA-AET))-Pro-Pro-Thr-Gln-Otf-Cys]-OH (peptide)	> 8 pIC50	> 8 pIC50
Hex-[Cys(tMeBn(DOTA-AET))-Pro-Pro-Thr-Gln-Phe-Cys]-Gab-OH (peptide)	> 8 pIC50	> 8 pIC50
Hex-[Cys(tMeBn(DOTA-AET))-Pro-Pro-Thr-Gln-Phe-Cys]-Bhf-OH (peptide)	> 8 pIC50	> 8 pIC50
H-met-[Cys(3MeBn)-Pro-Pro-Thr-Glu-Phe-Cys]-Asp-His-Phe-Arg-Asp-NH2 (peptide)	> 8 pIC50	> 8 pIC50
Ac-Met-[Cys(3MeBn)-Pro-Pro-Thr-Glu-Phe-Cys]-Asp-His-Tic-Arg-Asp-NH2 (peptide)	> 8 pIC50	> 8 pIC50
Ac-Met-[Cys(3MeBn)-Pro-Pro-Thr-Glu-Phe-Cys]-Asp-His-Ppa-Arg-Asp-NH2 (peptide)	> 8 pIC50	> 8 pIC50
Hex-[Cys(tMeBn(InDOTA-AET))-Pro-Pro-Thr-Gln-Phe-AET] (peptide)	> 8 pIC50	> 8 pIC50
Ac-Met-[Cys(3MeBn)-Pro-Pro-Thr-Glu-Phe-Cys]-Asp-His-Mpa-Arg-Asp-NH2 (peptide)	> 8 pIC50	> 8 pIC50
Ac-Met-[Cys(3MeBn)-Pro-Pro-Thr-Glu-Phe-Cys]-Asp-His-Amf-Arg-Asp-NH2 (peptide)	> 8 pIC50	> 8 pIC50
DOTA-Ttds-Nle-[Cys(3MeBn)-Pro-Pro-Thr-Glu-Phe-Cys]-Asp-NH2 (peptide)	> 8 pIC50	
